Literature values, collected in patent publication US20260070964A1, “IL-12 GENE THERAPY AND ANTI-VEGF COMBINATION FOR TREATING CANCER” (IMUNON, INC., priority 2022, published 2026).

Experiments:
[1] = human clinical trial
[2] = test system: established tumors; settings: animal models
[3] = several experimental trials and an initial human trial

For “recombinant IL-12: recombinant interleukin-12 protein”, the “toxicity on intraperitoneal administration” value [1] is listed as “Dose limiting toxicity was also observed”, the antitumor effects [2] is listed as “profound T-cell mediated antitumor effects causing regression of established tumors” and the “toxicity on systemic administration” value [3] is listed as “dose limiting toxicity”.
